Source: US20220235118A1 (IMMUNOME, published 2022)

Columns and labels:
[1] = target: Spike protein D614G (SARS-CoV-2/human/Germany/BavPat 1/2020) on pseudovirus or live virus (SARS-CoV-2, UniProt P0DTC2 14-1273); test: cell-based or functional assay
[2] = target: Spike protein of the U.K. (B.1.1.7, Alpha) variant on pseudovirus or live virus (SARS-CoV-2, UniProt P0DTC2 14-1273); test: cell-based or functional assay
[3] = target: T1, SARS-CoV-2 Spike S1 domain D614G (SARS-CoV-2, UniProt P0DTC2 16-685); test: HTRF, soluble S1 construct
T1 construct: domain: S1

[4] = target: T2, SARS-CoV-2 Spike S1 domain A222S, D614G (SARS-CoV-2, UniProt P0DTC2 16-685); test: HTRF, soluble S1 construct
T2 construct: domain: S1; also called Spanish (A222S, D614G)

[5] = target: T3, SARS-CoV-2 Spike S1 domain K417N, E484K, N501Y, D614G (SARS-CoV-2, UniProt P0DTC2 16-685); test: HTRF, soluble S1 construct
T3 construct: domain: S1; also called S. African (K417N, E484K, N501Y, D614G); B.1.351

[6] = target: T4, SARS-CoV-2 Spike S1 domain ΔHV69/70, ΔY144, N501Y, A570D, D614G, P681H (SARS-CoV-2, UniProt P0DTC2 16-685); test: HTRF, soluble S1 construct
T4 construct: domain: S1; also called U.K. (B.1.1.7); DHV69/70, DY144, N501Y, A570D, D614G, P681H

[7] = target: T5, SARS-CoV-2 Spike S1 domain ΔHV69/70, Y453F, D614G (SARS-CoV-2, UniProt P0DTC2 16-685); test: HTRF, soluble S1 construct
T5 construct: domain: S1; also called Denmark (ΔHV69/70, Y453F, D614G); DHV69/70, Y453F, D614G

[8] = target: T1, SARS-CoV-2 Spike S1 domain D614G; test: HTRF, soluble S1 construct; remark: listed apart in the source
[9] = target: T6, SARS-CoV-2 Spike RBD N439K (SARS-CoV-2, UniProt P0DTC2 319-541); test: HTRF, soluble RBD construct
T6 construct: domain: RBD

[10] = target: T7, SARS-CoV-2 Spike RBD E406Q (SARS-CoV-2, UniProt P0DTC2 319-541); test: HTRF, soluble RBD construct
T7 construct: domain: RBD

[11] = target: T8, SARS-CoV-2 Spike RBD K417N (SARS-CoV-2, UniProt P0DTC2 319-541); test: HTRF, soluble RBD construct
T8 construct: domain: RBD

[12] = target: T9, SARS-CoV-2 Spike RBD N501Y (SARS-CoV-2, UniProt P0DTC2 319-541); test: HTRF, soluble RBD construct
T9 construct: domain: RBD

[13] = target: T10, SARS-CoV-2 Spike RBD Y453F (SARS-CoV-2, UniProt P0DTC2 319-541); test: HTRF, soluble RBD construct
T10 construct: domain: RBD

[14] = target: T11, SARS-CoV-2 Spike RBD A352S (SARS-CoV-2, UniProt P0DTC2 319-541); test: HTRF, soluble RBD construct
T11 construct: domain: RBD

[15] = target: T12, SARS-CoV-2 Spike RBD A475V (SARS-CoV-2, UniProt P0DTC2 319-541); test: HTRF, soluble RBD construct
T12 construct: domain: RBD

[16] = target: T6, SARS-CoV-2 Spike RBD N439K; test: HTRF, soluble RBD construct; remark: listed apart in the source
[17] = target: T7, SARS-CoV-2 Spike RBD E406Q; test: HTRF, soluble RBD construct; remark: listed apart in the source
[18] = target: T8, SARS-CoV-2 Spike RBD K417N; test: HTRF, soluble RBD construct; remark: listed apart in the source
[19] = target: T9, SARS-CoV-2 Spike RBD N501Y; test: HTRF, soluble RBD construct; remark: listed apart in the source
[20] = target: T10, SARS-CoV-2 Spike RBD Y453F; test: HTRF, soluble RBD construct; remark: listed apart in the source
[21] = target: T11, SARS-CoV-2 Spike RBD A352S; test: HTRF, soluble RBD construct; remark: listed apart in the source
[22] = target: T12, SARS-CoV-2 Spike RBD A475V; test: HTRF, soluble RBD construct; remark: listed apart in the source
[23] = target: T13, SARS-CoV-2 Spike RBD E484Q (SARS-CoV-2, UniProt P0DTC2 319-541); test: HTRF, soluble RBD construct
T13 construct: domain: RBD

[24] = target: T14, SARS-CoV-2 Spike RBD E484K (SARS-CoV-2, UniProt P0DTC2 319-541); test: HTRF, soluble RBD construct
T14 construct: domain: RBD

[25] = target: T15, SARS-CoV-2 Spike RBD L452R (SARS-CoV-2, UniProt P0DTC2 319-541); test: HTRF, soluble RBD construct
T15 construct: domain: RBD

[26] = target: T16, SARS-CoV-2 Spike RBD K444R (SARS-CoV-2, UniProt P0DTC2 319-541); test: HTRF, soluble RBD construct
T16 construct: domain: RBD

[27] = target: T17, SARS-CoV-2 Spike RBD F486S (SARS-CoV-2, UniProt P0DTC2 319-541); test: HTRF, soluble RBD construct
T17 construct: domain: RBD

Binder	IC50, neutralization of live virus in a virus internalization assay [1] [nM]	IC80, neutralization of live virus in a virus internalization assay [1] [nM]	IC90, neutralization of live virus in a virus internalization assay [1] [nM]	IC50, neutralization of live virus in a virus internalization assay [2] [nM]	IC80, neutralization of live virus in a virus internalization assay [2] [nM]	IC90, neutralization of live virus in a virus internalization assay [2] [nM]	fold over background [3] [fold over background]	fold over background [4] [fold over background]	fold over background [5] [fold over background]	fold over background [6] [fold over background]	fold over background [7] [fold over background]	EC50 [8] [nM]	fold over background [9] [fold over background]	fold over background [10] [fold over background]	fold over background [11] [fold over background]	fold over background [12] [fold over background]	fold over background [13] [fold over background]	fold over background [14] [fold over background]	fold over background [15] [fold over background]	EC50 [16] [nM]	also measured
PR194_00232 (antibody, V domains shown, also called IMM20190; PR194_00190) VH: EVQLVESGGGLVQPGGSLRLSCSASGFTVSSNYMSWVRQAPRKGLEWVSVIYAGGSTFYADSVKGRFTISRDNSKNTLLLQMNSLRAEDTAVYYCARDRGGYLDYWGQGTLVTVSS VL: DIQMTQSPSSLSASVGDRVTITCRASQGISNYLAWYQQKPGKVPKLLIYAASTLQSGVPSRFSGSGSGTDFTLTISSLQPEDVATYYCQKYNSAPGLTFGGGTKVEIK	0.35	1.43	3.06	2.66	13.7	> 394	4.84	8.47	1.12	3.91	8.18	0.0627	5.95	8.81	2.25	4.3	5.94	6.75	7.47	0.0689	EC50 [17]: 0.0677 nM; EC50 [18]: > 0.5 nM; EC50 [19]: 0.279 nM; EC50 [20]: 0.0646 nM; EC50 [21]: 0.0219 nM; EC50 [22]: 0.0724 nM; EC50 [23]: 0.0524 nM; EC50 [24]: 0.0334 nM; EC50 [25]: 0.0318 nM; EC50 [26]: 0.0258 nM; EC50 [27]: 0.0334 nM
PR200_00622 (antibody, V domains shown, also called IMM20253; PR200_00253) VH: QVQLVESGGGVVQPGRSLRLSCTASGFTFSTYGMHWVRQAPGKGLEWVAVISYDGSSKHYAESVKGRFTISRDNSNNTLYLQMNRLRAEDTAVYYCARDGQPPGWGNYFDYWGQGTLVTVAS VL: SYVLTQPPSVSVAPGKTARITCGGNGIGSKSVYWYQQKPGQAPEVVVYDDSDRPSGIPERFSGSNSGNTATLTISRVEAGDEADYYCQVWDSSSDPWVFGGGTKLTVL	39.4	151	289	1.38	61.1	219	6.1	6.64	6.28	5.92	7	0.0624	5.05	7.6	4.68	5.11	4.67	5.14	5.22	0.0534	EC50 [17]: 0.0406 nM; EC50 [18]: 0.0674 nM; EC50 [19]: 0.0585 nM; EC50 [20]: 0.0626 nM; EC50 [21]: 0.0317 nM; EC50 [22]: 0.033 nM; EC50 [23]: 0.0238 nM; EC50 [24]: 0.0316 nM; EC50 [25]: 0.034 nM; EC50 [26]: 0.0261 nM; EC50 [27]: 0.0259 nM
PR193_00018 (antibody, V domains shown, also called IMM20184; IMM200184) VH: EVQLVESGGGLVQPGGSLRLSCSASGFTFSSFWMSWVRQAPGKGLEWVATIREDGSEKYYVDSVKGRFSISRDNAKNSLYLQMNSLRAEDTAVYYCARSKWLRGSFDYWGQGTLVTVSS VL: NFMLTQPHSVSESPGKTVTISCTRRSGSIASNYVQWYQQRPGSAPTTVIYEDNQRPSGVPDRFSGSIDSSSNSASLTISGLQTEDEADYYCQSYDSSNPPGASWVFGGGTKLTVL	33.8	126	236	43.3	> 394	> 394	4.93	5.43	4.64	4.15	5.61	0.0397	4.43	6.58	3.64	4.92	4.74	4.62	4.42	0.051	EC50 [17]: 0.0261 nM; EC50 [18]: 0.0437 nM; EC50 [19]: 0.0398 nM; EC50 [20]: 0.0494 nM; EC50 [21]: 0.0263 nM; EC50 [22]: 0.0279 nM; EC50 [23]: 0.0216 nM; EC50 [24]: 0.0205 nM; EC50 [25]: 0.0436 nM; EC50 [26]: 0.0194 nM; EC50 [27]: 0.0221 nM
